# Laboratory results from paper PMC6662822, “Rational drug-design approach supported with thermodynamic studies — a peptide leader for the efficient bi-substrate inhibitor of protein kinase CK2” (Scientific Reports, 2019).
# Where no end group is shown, it is not given here.
# B1: RRRDDDSDDD (peptide)
# peptide: RRRDDDSDDD
# notes: The supplier is named in the methods of the kinase assay; also called CK2 substrate peptide; source: bought: Biaffin GmbH & Co KG
# B2: EETEEE-NH2 (peptide)
# peptide: EETEEE-NH2
# notes: source: synthetic peptide (solid-phase synthesis, purified by HPLC); in the pull-down as a member of the synthetic library
# B3: EESEEE-NH2 (peptide)
# peptide: EESEEE-NH2
# notes: as for B2
# B4: KESEEE-NH2 (peptide)
# peptide: KESEEE-NH2
# notes: source: synthetic peptide (solid-phase synthesis, purified by HPLC)
# B5: KETEEE-NH2 (peptide)
# peptide: KETEEE-NH2
# notes: as for B2
# How the values were obtained:
# Details in all cases: both partners purified
# [1] = biological target: T1, catalytic subunit of human protein kinase CK2 (human, UniProt P68400 1-391, NT-647 dye (NanoTemper Protein Labeling Kit RED), in the MST experiments only); experiment: MST; hCK2α labelled with NT-647 dye, 50 nM; ligand 100 nM-10 mM; thermophoresis with temperature jump; global fit of three independent pseudo-titrations
# T1 construct: catalytic subunit (alpha) of human protein kinase CK2; The His tag is named only for the pull-down (immobilised on cobalt resin); also called hCK2α; CK2α
# T1 sequence (P68400 whole entry): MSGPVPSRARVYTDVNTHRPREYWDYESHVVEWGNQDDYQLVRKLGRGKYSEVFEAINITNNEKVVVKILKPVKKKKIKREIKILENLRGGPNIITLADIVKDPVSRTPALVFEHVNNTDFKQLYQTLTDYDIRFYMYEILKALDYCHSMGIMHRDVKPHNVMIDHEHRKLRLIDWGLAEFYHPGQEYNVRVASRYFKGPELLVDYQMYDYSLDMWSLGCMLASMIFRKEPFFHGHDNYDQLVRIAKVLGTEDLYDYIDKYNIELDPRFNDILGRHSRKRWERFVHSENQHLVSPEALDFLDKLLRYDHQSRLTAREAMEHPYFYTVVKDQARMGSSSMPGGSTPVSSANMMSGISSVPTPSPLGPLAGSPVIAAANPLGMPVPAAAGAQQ
# [2] = biological target: T1, catalytic subunit of human protein …; experiment: other fluorescence titration; nanoDSF (Prometheus NT.48): 350 nm/330 nm fluorescence ratio at 25 °C (native protein) against peptide concentration; 2.5 μM hCK2α, peptide 300 nM-10 mM, 25 mM Tris-HCl pH 7, 0.5 M NaCl; single binding site model
# [3] = biological target: T1, catalytic subunit of human protein …; experiment: MST; as a6, labelled hCK2α in the presence of TBBt (hCK2α/TBBt complex)
# [4] = biological target: T1, catalytic subunit of human protein …; experiment: other fluorescence titration; nanoDSF as a3 (25 °C), hCK2α in the presence of TBBt (hCK2α/TBBt complex)
# [5] = biological target: T1, catalytic subunit of human protein …; experiment: other fluorescence titration; nanoDSF as a3, but data at 75 °C: unfolded form of hCK2α
Binder,Kd [1] [mM],Kd [2] [µM],Kd [3] [µM],Kd [4] [µM],Kd [5] [mM]
B1,2.1 ± 0.7,–,–,–,–
B2,–,960 ± 30,–,–,–
B3,–,1580 ± 60,–,–,–
B4,0.39 ± 0.21,350 ± 20,360 ± 230,450 ± 20,~1
B5,–,950 ± 50,–,–,–
